Source: PMC5561112, “Thermodynamic and Kinetic Analyses of Iron Response Element (IRE)-mRNA Binding to Iron Regulatory Protein, IRP1”

Columns and labels:
Settings in all cases: protein: recombinant; label: 5' fluorescein; hairpin
[1] = target: T1, IRP1 (iron regulatory protein 1) (rabbit, UniProt Q01059 1-889); assay: fluorescence anisotropy; 10 °C, no Mn2+; 40 mM HEPES pH 7.2, 100 mM KCl, 5-30 °C, ±50 µM Mn2+; labeled RNA 50 nM or 100 nM (Methods)
T1 sequence: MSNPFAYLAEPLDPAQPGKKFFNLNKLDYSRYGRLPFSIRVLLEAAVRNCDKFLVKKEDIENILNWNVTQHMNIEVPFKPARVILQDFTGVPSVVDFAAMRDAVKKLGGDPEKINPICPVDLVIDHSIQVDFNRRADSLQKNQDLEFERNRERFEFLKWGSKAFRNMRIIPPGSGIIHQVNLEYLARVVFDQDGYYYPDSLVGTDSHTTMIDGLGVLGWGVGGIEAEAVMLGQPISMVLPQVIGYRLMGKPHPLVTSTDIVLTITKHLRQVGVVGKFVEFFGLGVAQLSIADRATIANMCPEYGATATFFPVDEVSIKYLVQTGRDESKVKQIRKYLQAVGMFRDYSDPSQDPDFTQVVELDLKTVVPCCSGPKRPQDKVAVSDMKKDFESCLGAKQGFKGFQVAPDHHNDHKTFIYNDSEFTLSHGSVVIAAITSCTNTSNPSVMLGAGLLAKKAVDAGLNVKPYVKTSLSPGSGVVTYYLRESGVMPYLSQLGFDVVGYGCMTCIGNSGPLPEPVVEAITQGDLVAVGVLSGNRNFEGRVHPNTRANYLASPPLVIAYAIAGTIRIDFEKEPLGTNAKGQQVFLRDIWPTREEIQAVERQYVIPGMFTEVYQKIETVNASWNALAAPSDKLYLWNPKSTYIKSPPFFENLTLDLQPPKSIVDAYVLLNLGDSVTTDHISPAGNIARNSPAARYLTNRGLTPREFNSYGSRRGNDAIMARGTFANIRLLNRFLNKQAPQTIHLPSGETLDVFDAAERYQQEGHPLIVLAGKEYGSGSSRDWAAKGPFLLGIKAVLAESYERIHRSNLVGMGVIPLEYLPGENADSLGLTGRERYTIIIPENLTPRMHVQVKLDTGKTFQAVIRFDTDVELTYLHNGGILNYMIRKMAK

[2] = target: T1, IRP1 (iron regulatory protein 1); assay: fluorescence anisotropy; 30 °C, no Mn2+; 40 mM HEPES pH 7.2, 100 mM KCl, 5-30 °C, ±50 µM Mn2+; labeled RNA 50 nM or 100 nM (Methods)
[3] = target: T1, IRP1 (iron regulatory protein 1); assay: fluorescence anisotropy; 25 °C, no Mn2+; 40 mM HEPES pH 7.2, 100 mM KCl, 5-30 °C, ±50 µM Mn2+; labeled RNA 50 nM or 100 nM (Methods)
[4] = target: T1, IRP1 (iron regulatory protein 1); assay: fluorescence anisotropy; 20 °C, no Mn2+; 40 mM HEPES pH 7.2, 100 mM KCl, 5-30 °C, ±50 µM Mn2+; labeled RNA 50 nM or 100 nM (Methods)
[5] = target: T1, IRP1 (iron regulatory protein 1); assay: fluorescence anisotropy; 15 °C, no Mn2+; 40 mM HEPES pH 7.2, 100 mM KCl, 5-30 °C, ±50 µM Mn2+; labeled RNA 50 nM or 100 nM (Methods)
[6] = target: T1, IRP1 (iron regulatory protein 1); assay: fluorescence anisotropy; 5 °C, no Mn2+; 40 mM HEPES pH 7.2, 100 mM KCl, 5-30 °C, ±50 µM Mn2+; labeled RNA 50 nM or 100 nM (Methods)

Binder | Kd [1] [nM] | Kd [2] [nM] | Kd [3] [nM] | Kd [4] [nM] | Kd [5] [nM] | Kd [6] [nM]
GUUCUUGCUUCAACAGUGUUUGAACGGAAC (structured_RNA) [FRT IRE-RNA (ferritin IRE)] | 7 ± 0.2 | 19.2 ± 0.4 | 14.2 ± 0.3 | 11.7 ± 0.4 | 8.6 ± 0.3 | 4.6 ± 0.2
CCUCAUCUUUGUCAGUGCACAAAAUGGCG (structured_RNA) [ACO2 IRE-RNA (mitochondrial aconitase IRE)] | 69.6 ± 5 | 155 ± 4 | 129 ± 3.3 | 101 ± 7 | 89 ± 3 | 55.9 ± 3
